Test results from the supplement of paper PMC12042874.
± gives the uncertainty stated by the source.

assay: amyloid nucleation score (Sup35N fusion, yeast selection) (log enrichment); library NNK1; higher = more nucleation; inactive = no reads after selection
Procedure, shortened: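 The nucleation score, computed with DiMSum, is the log enrichment of output over input reads, centred on the mode score of non-aggregating sequences. Sequences with under 100 input reads were dropped. Reads were generated by Illumina sequencing of plasmid inserts from psi-negative yeast with Sup35N fused to peptides of 20 random codons, induced with 100 μM copper sulfate for 24 hours and grown 7 days at 30°C on medium lacking adenine and uracil.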

In order of falling amyloid nucleation score:
1. SSLMPIYRLFLWFVKVYVKP  9.39 ± 0.049
2. RLNVQLAGSVGVVWFICNWA  5.98 ± 0.056
3. IVMFVGFCGENKLAWDSRRK  5.03 ± 0.05
4. QGIAACSAGSLDYVYGRWKG  3.91 ± 0.09
5. IMLVYMKTLGTM  3.7 ± 0.071
6. YNMNFVSLVLGARRVYALSM  3.62 ± 0.12
7. IKGPLLFIFSESVLAFDETS  3.6 ± 0.073
8. FNYFVLFSLSFSTVFSFNDT  3.37 ± 0.081
9. VLSRLCLYVSVMSRDNKYGS  2.38 ± 0.46
10. TVRQTGRVPMTGLIMFW  1.95 ± 0.19
11. SCVFLGSWWRCGWMPGSHVP  1.93 ± 0.29
12. ICHFVLYVQRPNSGWHYKSL  1.91 ± 0.53
13. GVHRWVRSARLEAVHFGAGW  1.45 ± 0.84
14. CALVYGWTEHDV  1.44 ± 0.64
15. WTSIV  1.38 ± 0.47
16. MMVRGMW  1.34 ± 0.35
17. VYRIAMIF  1.22 ± 0.31
18. YTIGTRPTMLRLFGVLRWAG  1.19 ± 0.43
19. THKFLRTRTYFMSVRSVNYW  1.19 ± 0.41
20. KVEWVSDTRVNLLGTFVLKA  1.18 ± 0.43
21. ETRANGVESFSTDLYMHFLD  1.16 ± 0.36
22. TSLYNCRVRRLYFWWLRIML  1.14 ± 0.7
23. LISFSCVVNSLAEPRYIFLS  1.13 ± 0.88
24. GSLLICEWLRFSRGRGVRSY  1.11 ± 0.79
25. MLGFYKSWCFNFSNMNVH  0.979 ± 0.57
26. FAEFKDICMRE  0.978 ± 0.74
27. RVPCCGSYKGVFYEFTFSRG  0.957 ± 0.49
28. SYNWMVVFVYECI  0.931 ± 0.57
29. YKCVYFGMETAVGNTAQERP  0.861 ± 0.77
30. VVDVSYRNLRRCM  0.8 ± 0.36
31. SSGQLSNKYC  0.786 ± 0.46
32. HVHTDSIDRVWRVLFTIKSK  0.776 ± 0.61
33. SPEGSPNEHDYTIPAVRGGP  0.775 ± 0.38
34. GLMNSRYMYVVNMS  0.758 ± 0.4
35. SCLCFLNPTNFEKLLISFVP  0.725 ± 0.53
36. MRLNYGNITLSFGSPMMQTI  0.682 ± 0.15
37. LAITDKPNANARRPPTPVLY  0.623 ± 0.51
38. VFSDQQDHQHGWTYETSLSA  0.619 ± 0.7
39. SLKFRLYSPNAMALNPKALF  0.581 ± 0.21
40. FPDLYVWRCWKSQGHSWHGV  0.573 ± 0.52
41. MDVGIFMIMTVTRWKGCSVI  0.565 ± 0.48
42. RRYCKLLVWRQLTSYHGRQA  0.527 ± 0.49
43. NHLVG  0.526 ± 1.4
44. YLPVYNY  0.487 ± 0.65
45. MWGPHCTRSTTTLVPRARKG  0.468 ± 0.46
46. SCACYGWSVYSLGNANRVLS  0.465 ± 0.69
47. VCKVRRL  0.461 ± 0.63
48. QFRICVAPEFFGRKSLRASD  0.445 ± 1.2
49. VMTRNTCVQVGLEGTSQFAG  0.435 ± 0.26
50. YFVFFLRDLFWRRKI  0.408 ± 0.41
51. FLRCRFLYQQ  0.4 ± 0.39
52. TSKERSLCSKDVT  0.393 ± 0.55
53. VAMILYGFTFWILRCNEWCR  0.377 ± 0.24
54. PSGVCSIVVFKCLRRVMSSL  0.353 ± 0.35
55. KSVVSFMTFPSLQEHKVVLI  0.33 ± 0.53
56. LSYRSSRFGVS  0.3 ± 0.64
57. GRIQCHYGLSVYNGFESGTG  0.279 ± 0.83
58. VLSFDLVTVVGNKFLVWIKR  0.276 ± 0.52
59. VGNSSGWLTNHLAEKRGQTM  0.268 ± 1.1
60. VLGISLSERNLKGIV  0.232 ± 0.32
61. KAVRMSNFD  0.223 ± 0.71
62. ECCQDVIFFVAQINTCIEVT  0.221 ± 0.37
63. YTAACTRSNCYMCPVSAVGW  0.214 ± 0.86
64. PRIRSPEMDVMSPPNFLWGL  0.213 ± 0.48
65. IVWVDLNRIGSCAGLGINYY  0.18 ± 0.41
66. AIRSFRARIGN  0.177 ± 1.2
67. NPGNTN  0.17 ± 0.55
68. WFSVDFNNHLWFQNSYSMWG  0.156 ± 0.43
69. LFWASVSSWYDGEGVGKPDV  0.134 ± 0.47
70. HAMISWDISNVCVYWHMCPW  0.12 ± 0.33
71. SPLNKMVTFVAVLAFVFVLV  0.114 ± 0.66
72. WSLPAVRRCHNELEYCNTRR  0.107 ± 0.34
73. SAWSGR  0.104 ± 0.3
74. FCVSTRRWGRAEYKRMDLLW  0.077 ± 1
75. SVRVPWLASFCSKFMSGAYI  0.058 ± 0.41
76. IWIMWGYRSLDTMLHS  0.047 ± 0.77
77. GKAASRNGGMWKEMRFEACD  0.046 ± 0.42
78. FKKNKQSSVKFGSNKSLQIG  0.027 ± 0.51
79. ITKNRPARNRLLRTGMYFLL  0.004 ± 0.29
80. SKSFGFEYPG  -0.002 ± 0.37
81. AVQKVRCRWN  -0.009 ± 0.23
82. GNIFWRMLWFVGYEKGSLLF  -0.022 ± 0.36
83. LKKTYYSMYL  -0.045 ± 0.33
84. YPLFCNDHVGSSTLRRR  -0.065 ± 0.35
85. TMSRQHKTGPNGSRAL  -0.073 ± 0.79
86. YSSICGSKLLRSGGCRGVGH  -0.083 ± 0.49
87. RQSWPGYFVCSYQCVRMGNR  -0.084 ± 0.3
88. LLWGATFCSSIQPDYNLSPV  -0.095 ± 0.44
89. FRRLMLWSCSV  -0.098 ± 1.3
90. NVSLRFGSYPGVNVGSAFMV  -0.109 ± 0.53
91. WEVSPIGVPYSY  -0.117 ± 0.57
92. DCMIVGLHHIKVRHSLFVRW  -0.128 ± 0.33
93. REGLTFPRVLPIWHLFVSSD  -0.139 ± 0.32
94. HKFSNELLL  -0.145 ± 0.76
95. PWTSHVNFRSSGYLSNCLNF  -0.145 ± 0.64
96. MIKSKM  -0.154 ± 0.61
97. LCLYGVC  -0.164 ± 0.56
98. LTLFQYAFDVHETAVLKLEW  -0.166 ± 0.4
99. FAGSSGRCTPGSGFQGSIVT  -0.167 ± 0.33
100. ICISSPVMMKAIPLPFEFSR  -0.167 ± 0.43
101. NEWVCLS  -0.179 ± 0.36
102. ESSGTFFP  -0.186 ± 0.9
103. FDECGAGLLPTG  -0.198 ± 0.41
104. WCRDLHKLYLY  -0.2 ± 0.56
105. LHRNSTPFIWHRRIEVSLGN  -0.201 ± 1.3
106. VTYNGYVG  -0.205 ± 0.58
107. QGISPLRWAVLYRFMYGCVR  -0.209 ± 0.57
108. TRFLGYWADLSICMPSYGCR  -0.209 ± 1
109. FTDTEYLQGLDIGVGMERLY  -0.218 ± 0.65
110. VKVHEDSIRMEENSSDTYFK  -0.218 ± 0.34
111. LPWYSSQMRADVSTPERWFL  -0.224 ± 0.7
112. LCLRVEGGNKPTEHCITSPT  -0.234 ± 0.43
113. AGVLAV  -0.246 ± 0.46
114. ILGWHGIRFVFRTALFRR  -0.286 ± 0.41
115. GLCMEYTVWWVWSWITLRVD  -0.294 ± 0.26
116. YHIMGFSSYGGVVRWMSS  -0.312 ± 0.36
117. QFESIGCVEWYMFGIREVFS  -0.318 ± 0.47
118. CKTGGFYRSVGRTTRFCHVE  -0.321 ± 0.39
119. VKATLSFSQFLHVVSYWGF  -0.342 ± 0.71
120. QTFMHSCEFRVN  -0.347 ± 0.66
121. PLVVGRVCEGYRRWCWFGRR  -0.369 ± 0.38
122. LYSVRLRSVSK  -0.376 ± 0.25
123. GDYYACGPTCGSRAAFPGVG  -0.383 ± 0.59
124. DYFSRKPGNCFWFAIARDNT  -0.398 ± 1.2
125. VRMNCMDYQFNYLSLLLRTI  -0.401 ± 0.45
126. ALWVNVMQARAIGSGFGRTK  -0.415 ± 0.58
127. YPVVHDM  -0.426 ± 0.56
128. MVTGTSHPLQYMLSGSSTKY  -0.436 ± 0.45
129. MHGISQPWHKLTMTGIRLAW  -0.463 ± 0.51
130. RTKCKASISNIPTRWYDP  -0.469 ± 1.2
131. TNSTISYFARFVVIWLGKIA  -0.488 ± 0.86
132. RDNKVPVR  -0.537 ± 1.9
133. GNIFAYGT  -0.611 ± 0.76
134. IGAGPRL  -0.623 ± 0.27
135. NLYVNN  -0.623 ± 1
136. TLTVRRCSCQVQWGLRMFHL  -0.653 ± 1.4
137. GTSMRFGGGVIF  -0.721 ± 0.49
138. LRYSYTRDHSGTPYPSTGNS  -0.74 ± 1.1
139. LTHVIGIPRQPCEPLVHLYG  -0.745 ± 2.4
140. RYYCFPTQLIHLTTT  -0.755 ± 0.55
141. RIYRFLKLLIRGGVISVARY  -0.758 ± 1.9
142. RIGVLNCWEVWADVTQREHL  -0.769 ± 1.1
143. GSIWED  -0.778 ± 0.64
144. HYVVG  -0.784 ± 0.74
145. VVGYRRTMGLVEFSLASVSN  -0.806 ± 0.76
146. MSLYYPSFDQPITKRVRLFF  -0.82 ± 1.4
147. ASSLDLFNWASVWFFNYIGA  -0.887 ± 0.86
148. LDHNGEGFFFKGSLFVNCLA  -0.912 ± 1.6
149. LLLYPRMGDRGTYYGMSGIR  -1.01 ± 2.7
150. KYHRFFAG  -1.02 ± 1.8
151. CAKLCKASHSVFIDDRRCVR  -1.02 ± 2.4
152. VTILWTKSYMESDISFYIMW  -1.03 ± 0.44
153. KCTCSVKCSCIFCFIICCVC  -1.2 ± 1.7
154. LTCMLVRRFGNFIDDSYARA  -1.2 ± 0.5
155. EKQCVVDFL  -1.26 ± 1.7
156. KILTVHPSHNDPC  -1.32 ± 1.9

With RSDNSCRRLLEDWRSWRRAV the amyloid nucleation score was “inactive”.
In the case of SCDMYQYEIV, the amyloid nucleation score is reported as “inactive”.
With HWWYFCINP the amyloid nucleation score was “inactive”.
For LPRRKLNFIGLKISISIIAV, the amyloid nucleation score was “inactive”.
With SLVCNMFLSILRYFGFLNRS the amyloid nucleation score was “inactive”.
In the case of HIFHCGNRRFHTIKM, the amyloid nucleation score is reported as “inactive”.
With WDDSINCTTK the amyloid nucleation score was “inactive”.
For SRLVFGHTNRRNSIEQTELL, the amyloid nucleation score was “inactive”.
For LSNKLEYPMSPLISAVLFSA, the amyloid nucleation score was “inactive”.
With KIGLNCFE the amyloid nucleation score was “inactive”.
For VMVQANYMSSSSRSAYLSNM, the amyloid nucleation score was “inactive”.
With TNMMYVYFKVI the amyloid nucleation score was “inactive”.
In the case of PMLVQLLEASWVKPVLDCIY, the amyloid nucleation score is reported as “inactive”.
In the case of SFRSLFVFYDN, the amyloid nucleation score is reported as “inactive”.
With RLTFVYHRMERVKKDYCS the amyloid nucleation score was “inactive”.
With ININRNK the amyloid nucleation score was “inactive”.
